The record followed here is paper PMC5070455 (Biophysics, 2012).

This data set deals with the molecule itself. Description: negative-stain electron microscopy.

B1: desmin (natural protein, chicken, UniProt P02542 1-464, looked up)
chain: MSQSYSSSQRVSSYRRTFGGGTSPVFPRASFGSRGSGSSVTSRVYQVSRTSAVPTLSTFRTTRVTPLRTYQSAYQGAGELLDFSLADAMNQEFLQTRTNEKVELQELNDRFANYIEKVRFLEQQNALMVAEVNRLRGKEPTRVAEMYEEELRELRRQVDALTGQRARVEVERDNLLDDLQKLKQRLQEEIQLKEEAENNLAAFRADVDAATLARIDLERRIESLQEEIAFLKKVHEEEIRELQAQLQEQHIQVEMDISKPDLTAALRDIRAQYESIAAKNIAEAEEWYKSKVSDLTQAANKNNDALRQAKQEMLEYRHQIQSYTCEIDALKGTNDSLMRQMREMEERFAGEAGGYQDTIARLEEEIRHLKDEMARHLREYQDLLNVKMALDVEIATYRKLLEGEENRISIPMHQTFASALNFRETSPDQRGSEVHTKKTVMIKTIETRDGEVVSEATQQQHEVL
As for B1, the binding result is “binds”.
